Laboratory results: patent publication US20190077860A1 (EISAI R AND D MANAGEMENT, published 2019)
Changes are numbered by the printed parent chain. Names may count otherwise.

B1: humanized antibody No. 76 (antibody, human IgG1, kappa)
heavy: QVQLVQSGSELKKPGASVKVSCKASGYTFTDYSMHWVRQAPGQGLKWMGWINTETGEPTYAQGFTGRFVFSLDTSVSTAYLQISSLKAEDTAVYYCARIPLYYYGSRYWYFDVWGQGTTVTVSSASTKGPSVFPLAPSSKSTSGGTAALGCLVKDYFPEPVTVSWNSGALTSGVHTFPAVLQSSGLYSLSSVVTVPSSSLGTQTYICNVNHKPSNTKVDKRVEPKSCDKTHTCPPCPAPPAAAPSVFLFPPKPKDTLMISRTPEVTCVVVDVSHEDPEVQFNWYVDGVEVHNAKTKPREEQFNSTFRVVSVLTVVHQDWLNGKEYKCKVSNKGLPAPIEKTISKTKGQPREPQVYTLPPSREEMTKNQVSLTCLVKGFYPSDIAVEWESNGQPENNYKTTPPMLDSDGSFFLYSKLTVDKSRWQQGNVFSCSVMHEALHNHYTQKSLSLSPG
light: DIQMTQSPSSLSASVGDRVTITCRASENIYRNLAWYQQKPGKAPKLLVYAATNLADGVPSRFSGSGSGTDYTLTISSLQPEDFATYYCQHFWGTPWTFGQGTKVEIKRTVAAPSVFIFPPSDEQLKSGTASVVCLLNNFYPREAKVQWKVDNALQSGNSQESVTEQDSKDSTYSLSSTLTLSKADYEKHKVYACEVTHQGLSSPVTKSFNRGEC
notes: human Ig kappa; also called L1-4/HA2
B2: humanized antibody No. 85 (antibody, human IgG1, kappa)
heavy: B1 heavy with Q62D, G63D, T65K
light: B1 light with V48L, P80S
notes: human Ig kappa; also called L1-5/HK2
B3: humanized antibody No. 84 (antibody, human IgG1, kappa)
heavy: B1 heavy with K46E, Q62D, G63D, T65K
light: B1 light with V48L, P80S
notes: human Ig kappa; also called L1-5/HK1
B4: humanized antibody No. 78 (antibody, human IgG1, kappa)
heavy: B1 heavy with Q62D, G63D, T65K
light: B1 light
notes: human Ig kappa; also called L1-4/HK2
B5: humanized antibody No. 77 (antibody, human IgG1, kappa)
heavy: B1 heavy with K46E, Q62D, G63D, T65K
light: B1 light
notes: human Ig kappa; also called L1-4/HK1
B6: humanized antibody No. 69 (antibody, human IgG1, kappa)
heavy: B1 heavy with V2I, Q62D, G63D, T65K
light: B1 light
notes: human Ig kappa; also called L1-4/HK4
B7: humanized antibody No. 81 (antibody, human IgG1, kappa)
heavy: B1 heavy with K46E
light: B1 light with V48L, P80S
notes: human Ig kappa; also called L1-5/HA1
B8: humanized antibody No. 75 (antibody, human IgG1, kappa)
heavy: B1 heavy with K46E
light: B1 light
notes: constant region: human IgG1 CH1 and hinge, human IgG2 CH2 and CH3 with V234A, G237A, no C-terminal Lys; human Ig kappa; also called L1-4/HA1
B9: humanized antibody No. 67 (antibody, human IgG1, kappa)
heavy: B1 heavy with V2I
light: B1 light
notes: human Ig kappa; also called L1-4/HA4
B10: humanized antibody No. 82 (antibody, human IgG1, kappa)
heavy: B1 heavy
light: B1 light with V48L, P80S
notes: human Ig kappa; also called L1-5/HA2
B11: humanized antibody No. 83 (antibody, human IgG1, kappa)
heavy: B1 heavy with V2I
light: B1 light with V48L, P80S
notes: human Ig kappa; also called L1-5/HA4

Columns and labels:
[1] = biological target: T1, human EphA4 extracellular region-SEAP-His protein (human, UniProt P54764 20-547); test: SPR, Ab captured
T1 construct: also called hEphA4-SEAP-His
Experimental: The binding affinity of each anti-EphA4 monoclonal humanized antibody obtained in Example 16 for human EphA4 was determined by surface plasmon resonance (SPR) using Biacore T200 (GE Healthcare). First, for the assay of antibody A, a rat anti-mouse IgG₁ antibody produced with a conventional method by immunizing rat with mouse IgG₁ antibody was immobilized on sensor chip CM5. The immobilization of the rat anti-mouse IgG1 antibody on sensor chip CM5 was performed by the amine coupling method using N-hydroxysuccinimide (NHS) and N-ethyl-N′-(3-dimethylaminopropyl)carbodiimide hydrochloride (EDC). Ethanolamine was used in blocking (the sensor chip and the reagents for immobilization were all manufactured by GE Healthcare). The antibody was diluted with a buffer solution for immobilization (10 mM sodium acetate, pH 4.5) and immobilized on the sensor chip according to the protocol attached to Biacore T200. For the assay of each humanized monoclonal antibody, a protein A chip (GE Healthcare, 29-1383-03) was used. Antibody A or the humanized monoclonal antibody was diluted with a running buffer solution HBS-EP (GE Healthcare), injected onto only flow cell 2 for 120 seconds, and captured (captured amount: approximately 30 to 60 RU). Subsequently, human EphA4 extracellular region-SEAP-His protein serially diluted in the range of 50, 16.7, 5.6, 1.9, and 0.6 nM using HBS-EP was sequentially added from the lower toward higher concentration sides without regeneration operation. Binding reaction curves were sequentially observed at the time of the addition (association phase, for 120 sec) and after the completion of the addition (dissociation phase, for 900 sec). After the completion of each observation, the sensor chip was regenerated by the addition of 3 M MgCl₂ (for 60 sec) or 10 mM Glycine-HCl pH 1.5 (for 30 sec). The obtained binding reaction curves were subjected to fitting analysis with 1:1 binding models using software BIA evaluation attached to the system to calculate the affinity (KD=kd/ka) for human EphA4 (Table 6).

[2] = biological target: T1, human EphA4 extracellular …; test: competition ELISA, competitor human Ephrin A5-Fc
Experimental: Each anti-EphA4 monoclonal humanized antibody obtained in Example 16 was evaluated for its inhibitory activity against the binding between human EphA4 and its human ligand according to the following steps. Each well of a 96-well plate (Nunc) was coated with an anti-alkaline phosphatase antibody (Thermo Fisher Scientific). After incubation overnight at 4° C., each well was blocked with 1% BlockAce (DS Pharma Biomedical) at room temperature for 1 hour. After washing with 0.05% Tween 20/PBS (Thermo Fisher Scientific) three times, the human EphA4 extracellular region-SEAP-His protein obtained by the method of Example 2 was added (final concentration: 10 nM) to each well and incubated at room temperature for 1 hour. After washing three times, a ligand and each serially diluted humanized antibody of antibody A (0, 0.003, 0.01, 0.03, 0.1, 0.3, 1, 3, 10, 30, 100, 300, 1000, and 3000 nM) were added to each well. The ligand used was biotinylated human Ephrin A5-Fc chimera (R&D Systems, final concentration: 0.7 nM). After incubation at room temperature for 1 hour and subsequent washing three times, horseradish peroxidase-labeled streptavidin (GE Healthcare) was added thereto and incubated at room temperature for 1 hour. After washing three times, a TMBZ (3,3′,5,5′-tetramethylbenzidine, Sigma-Aldrich) solution was added to each well and incubated at room temperature for 2 minutes. An equal amount of a reaction stopping solution (1N H₂SO₄, Wako Pure Chemical Industries) was added to each well. The absorbance at 450 nm was read using a microplate reader (PerkinElmer).

T1 sequence (P54764 20-547): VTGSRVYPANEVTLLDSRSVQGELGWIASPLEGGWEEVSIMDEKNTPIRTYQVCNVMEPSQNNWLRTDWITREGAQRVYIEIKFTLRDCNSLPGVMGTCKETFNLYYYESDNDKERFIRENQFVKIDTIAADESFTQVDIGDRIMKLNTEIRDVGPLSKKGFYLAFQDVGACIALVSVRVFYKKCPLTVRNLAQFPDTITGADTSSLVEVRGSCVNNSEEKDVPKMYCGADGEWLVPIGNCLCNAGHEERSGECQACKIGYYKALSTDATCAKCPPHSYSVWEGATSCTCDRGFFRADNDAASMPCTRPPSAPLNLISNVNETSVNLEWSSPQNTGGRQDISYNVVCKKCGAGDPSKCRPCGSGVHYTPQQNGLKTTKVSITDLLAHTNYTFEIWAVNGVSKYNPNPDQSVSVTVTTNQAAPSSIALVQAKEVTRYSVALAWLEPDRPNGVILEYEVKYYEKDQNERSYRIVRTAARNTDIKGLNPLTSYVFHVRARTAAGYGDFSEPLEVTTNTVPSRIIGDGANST

Binder	Kd [1] [nM]	koff [1] [s⁻¹]	kon [1] [M⁻¹ s⁻¹]	IC50 [2] [nM]
B1	1	0.00034	330000	2.9
B2	1.6	0.0005	310000	4
B3	1.7	0.00056	350000	4.6
B4	1.1	0.00039	340000	2.8
B5	1.4	0.00058	410000	3.5
B6	1.1	0.00037	340000	3.1
B7	1.6	0.00054	340000	4
B8	1.2	0.00042	380000	2.9
B9	1.1	0.00035	330000	4.4
B10	1.6	0.00046	290000	4.1
B11	1.9	0.00054	290000	3.7
